B1: 8.10.3F, IgG2 (antibody, V domains shown)
VH: EVQLVESGGGLVQPGGSLRLSCAASGFTFSSFSMTWVRQAPGKGLEWVSYISSRSSTISYADSVKGRFTISRDNAKNSLYLQMNSLRDEDTAVYYCARDPLLAGATFFDYWGQGTLVTVSS
VL: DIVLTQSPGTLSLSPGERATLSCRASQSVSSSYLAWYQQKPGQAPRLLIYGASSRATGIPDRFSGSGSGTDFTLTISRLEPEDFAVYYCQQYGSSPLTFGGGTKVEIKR
notes: tested as IgG2; also called 8.10.F3
B2: 8.10.3F, IgG1_D265A (antibody, V domains shown)
VH: B1 VH
VL: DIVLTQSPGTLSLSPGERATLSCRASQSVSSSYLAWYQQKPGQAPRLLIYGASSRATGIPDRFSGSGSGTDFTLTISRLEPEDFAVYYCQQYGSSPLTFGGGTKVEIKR
notes: Prior art antibody; tested as IgG1 with D265A in the Fc (EU index); also called 8.10.F3
B3: HeRX1-10G1, IgG1 (antibody, V domains shown)
VH: QVQLQESGPGLVKPSQTLSLTCTVSDYSITSDYAWNWIRQFPGKGLEWMGYISYSGSTSYNPSLKSRITISRDTSKNQFSLQLNSVTAADTAVYYCASFDYAHAMDYWGQGTTVTVSS
VL: DIVLTQSPAFLSVTPGEKVTFTCQASQSIGTSIHWYQQKTDQAPKLLIKYASESISGIPSRFSGSGSGTDFTLTISSVEAEDAADYYCQQINSWPTTFGGGTKLEIKR
notes: tested as IgG1
B4: HeRX1-10G1, IgG1_D265A (antibody, V domains shown)
VH: B3 VH
VL: B3 VL
notes: Prior art antibody; tested as IgG1 with D265A in the Fc (EU index)
B5: Satine, Fab (Fab, V domains shown)
VH: EVQLVESGGGLVKPGGSLRLSCAASGFTFSIYAMSWVRQAPGKGLEWVGRIKSNADGGTTEYAAPVKGRFTISRDDSKNTLYLQMNSLKTEDTAVYYCARMRYYSDLYFDPWGQGTLVTVSS
VL: SYELTQPPSVSVSPGQTASITCSGDKLGQKYVSWYQQKPGQSPVLVISQDRKRPSGIPERFSGSNSGNTATLTISGTQAEDEADYYCQTWTHLQWVFGGGTKLTVLG
B6: 8.10.3F, Fab (Fab, V domains shown)
VH: B1 VH
VL: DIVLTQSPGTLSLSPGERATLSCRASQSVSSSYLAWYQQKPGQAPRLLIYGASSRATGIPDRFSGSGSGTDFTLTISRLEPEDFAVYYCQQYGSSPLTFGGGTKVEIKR
notes: Prior art antibody; also called 8.10.F3
B7: Blanche, Fab (Fab, V domains shown)
VH: QVQLQQSGPGLVKPSQTLSLTCAISGDSVSSNSAAWNWIRQSPSRGLEWLGRTYYRSKWKHEYAMSVKSRITINPDTSKNQFSLQLNSVTPEDTAVYYCARDRYYYSAFDYWGQGTLVTVSS
VL: DIALTQPASVSGSPGQSITISCTGTSSDVGGYNSVSWYQQHPGKAPKLMIYAVSNRPSGVSNRFSGSKSGNTASLTISGLQAEDEADYYCASYDERFTRVFGGGTKLTVLG
B8: Caline, Fab (Fab, V domains shown)
VH: B7 VH
VL: B7 VL with D1Q, I2S
B9: HeRX1-10G1, Fab (Fab, V domains shown)
VH: B3 VH
VL: B3 VL
notes: Prior art antibody
B10: Satine (format not stated) (antibody, V domains shown)
VH: B5 VH
VL: B5 VL
B11: Romaine (format not stated) (antibody, V domains shown)
VH: B5 VH
VL: DIELTQPPSVSVSPGQTASITCSGDAIGSKYVHWYQQKPGQAPVLVISKDNKRPSGIPERFSGSNSGNTATLTISGTQAEDEADYYCQTATVSSYWWVFGGGTKLTVLG
B12: Servane (format not stated) (antibody, V domains shown)
VH: B5 VH with I31T, M34I, R50F, N54K, A55H, D56N, G57S
VL: B5 VL
B13: Madeleine (format not stated) (antibody, V domains shown)
VH: B7 VH with H61K, M65Q
VL: B7 VL with D1Q, I2S
B14: Blanche (format not stated) (antibody, V domains shown)
VH: B7 VH
VL: B7 VL
B15: Celine (format not stated) (antibody, V domains shown)
VH: B7 VH with S31T, N32S, M65V
VL: B7 VL with D1Q, I2S, M49I
B16: Laurine (format not stated) (antibody, V domains shown)
VH: B7 VH with H61K, M65Q
VL: B7 VL
B17: Maelle (format not stated) (antibody, V domains shown)
VH: B7 VH with D27E, S31T, N32S, H61K, M65Q
VL: B7 VL with D1Q, I2S, M49I
B18: Caline (format not stated) (antibody, V domains shown)
VH: B7 VH
VL: B7 VL with D1Q, I2S
B19: Meriem (format not stated) (antibody, V domains shown)
VH: B7 VH with S31T, N32S, H61K, M65Q
VL: B7 VL with D1Q, I2S, M49I

A word on the Kd: it is the constant that tells how readily two partners part at equilibrium. What is called IC50 is the concentration at which inhibition is half-maximal. What is called EC50 is the concentration at which the effect is half-maximal.

Substitutions are numbered along the chain they refer to. In names and notes the source's numbering stands.

In one experiment the target is T1, Recombinant cynomolgus monkey sgM-CSF (cynomolgus (Macaca fascicularis), UniProt P09603 33-255 (human entry), limits assumed).
T1 chain: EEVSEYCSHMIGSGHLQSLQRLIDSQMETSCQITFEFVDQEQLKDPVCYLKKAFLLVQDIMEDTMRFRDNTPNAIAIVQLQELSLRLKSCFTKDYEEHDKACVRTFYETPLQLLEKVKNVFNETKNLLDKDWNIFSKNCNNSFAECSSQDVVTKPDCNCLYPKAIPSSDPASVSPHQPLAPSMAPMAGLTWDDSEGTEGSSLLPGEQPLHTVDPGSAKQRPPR
Briefly: cell-based or functional assay.
As to B1, the “IC50, inhibition of M-NFS-60 proliferation induced by recombinant cynomolgus M-CSF (9.5 pM)” value was found to be 84.6 pM.
Same read-out and setting: with B2 the figure was 16.5 pM; with B3, 4.1 pM; with B4, 3.5 pM.

In the next experiment the target is T2, Recombinant human sgM-CSF (human, UniProt P09603 33-255).
T2 sequence: T1 chain with M186V, D192E
The experiment is described as follows: cell-based or functional assay.
Take B1: the “IC50, inhibition of M-NFS-60 proliferation induced by recombinant human M-CSF (9.5 pM)” value amounted to 71.1 pM.
The same measure, in the same setting: the same measure for B2: 14.9 pM; for B3: 3.6 pM; for B4: 3 pM.

The target in the next experiment is T3, human M-CSF (human, UniProt P09603 33-255, limits assumed).
T3 construct: also called M-CSF (human); CSF-1
T3 sequence: T1 chain with M186V, D192E
The experiment is described as follows: soluble equilibrium titration (SET), Fab, monovalent. On the procedure:
(§1) The monovalent affinity of the antibodies of the present disclosure was determined by soluble equilibrium titration (Haenel et al. (2005) Anal Biochem 339, 182-4).
B5 registered a dissociation constant Kd below 0.002 nM.
For the molecule B6, the Kd came to 0.038 nM.
Still for that read-out and setting: with B7 the figure was 0.096 nM.
B8 displayed a Kd of 0.014 nM.
On the same count and under the same terms, the same measure for B9: above 1 nM.

The next experiment deals with T1, Recombinant cynomolgus monkey sgM-CSF. The description is as above. On the procedure:
as §1
With B7, the Kd amounted to 0.13 nM.
Still for that read-out and setting: with B8 the figure was 0.016 nM.

The target of another experiment is T2, Recombinant human sgM-CSF. The experiment is described as follows: MSD receptor binding inhibition: 12.5 pM human sgM-CSF preincubated with antibody, binding to coated human CSF1-R-Fc. On the procedure: (§2) Complexes were then transferred to 384 well MSD plates coated with 2 μg/ml of the corresponding receptor. Plates were then washed and incubated with the streptavidin/ECL conjugate for 2 h with shaking at room temperature. 35 μl MSD read buffer T with surfactant was then added per well and subsequently measured using MSD Sector Imager 6000.
For the molecule B1, the IC50 was determined as 0.0314 nM.
As to B2, the IC50 stood at 0.0192 nM.
The same measure, in the same setting: the same measure for B3: 0.0265 nM; for B4: 0.028 nM.

The next experiment addresses T3, human M-CSF. The experiment is described as follows: ELISA. On the procedure: (§3) BSA was used as a negative control substrate.
(§4) After blocking of plates with 5% skim milk powder in PBS, Fab-containing E. coli lysates, IgG-containing cell culture supernatants or purified IgG or Fab proteins were added. Binding of Fabs or IgGs was detected by F(ab)₂ specific goat anti-human IgG conjugated to alkaline phosphatase (Dianova Cat# 109-055-097; diluted 1:5000) using Attophos fluorescence substrate (Roche, #11681982001). Fluorescence emission at 535 nm was recorded with excitation at 430 nm.
For orientation: In an ELISA, binding on a coated surface is turned into a signal by an enzyme label.
B10 yielded an ELISA fluorescence units above 35000 units.
Still for that read-out and setting: with B11 the figure was above 35000 units; with B12, above 35000 units; with B13, above 35000 units.
The same measure, in the same setting: the same measure for B14: above 35000 units.
Still for that read-out and setting: the same measure for B15: above 35000 units.
Turning to B16, the ELISA fluorescence units was above 35000 units.
Still for that read-out and setting: the same measure for B17: above 35000 units; for B18: above 35000 units; for B19: above 35000 units.

Another experiment concerns the target T1, Recombinant cynomolgus monkey sgM-CSF. The experiment is described as follows: ELISA. On the procedure:
as §3, §4
For the molecule B10, the ELISA fluorescence units was above 35000 units.
B11: the ELISA fluorescence units was above 35000 units.
Still for that read-out and setting: with B12 the figure was above 35000 units; with B13, above 35000 units.
The same measure, in the same setting: the same measure for B14: above 35000 units; for B15: above 35000 units; for B16: above 35000 units.
Consider B17, for which the ELISA fluorescence units is above 35000 units.
On the same count and under the same terms, the same measure for B18: above 35000 units; for B19: above 35000 units.

Another experiment deals with T4, human cell-surface M-CSF on stably transfected CHO cells (human, UniProt P09603 33-554).
T4 construct: also called csM-CSF
T4 sequence: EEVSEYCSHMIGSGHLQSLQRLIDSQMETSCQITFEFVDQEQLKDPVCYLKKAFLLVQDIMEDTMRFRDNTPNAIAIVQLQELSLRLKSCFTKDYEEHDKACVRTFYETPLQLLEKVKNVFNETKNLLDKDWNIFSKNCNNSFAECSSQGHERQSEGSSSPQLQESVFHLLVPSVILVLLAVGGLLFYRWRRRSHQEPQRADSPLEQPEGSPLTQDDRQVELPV
Briefly: FACS, CHO cells stably transfected with M-CSF (n = 3).
Turning to B1, the 50% effective concentration (EC50) turned out to be 23.2 nM.
The same measure, in the same setting: with B2 the figure was 8.9 nM; with B3, 12.6 nM.
For the molecule B4, a half-maximal response (EC50) required 8.9 nM.

The next experiment has as its target T1, Recombinant cynomolgus monkey sgM-CSF. Briefly: MSD receptor binding inhibition: 12.5 pM cynomolgus sgM-CSF preincubated with antibody, binding to coated human CSF1-R-Fc. On the procedure: as §2
On to B1, for which the IC50 came out at 0.0207 nM.
Still for that read-out and setting: with B2 the figure was 0.0146 nM.
On the same count and under the same terms, with B3 the figure was 0.0276 nM; with B4, 0.018 nM.

The values are drawn from patent US20180057581A1 (MorphoSys, published 2018).
